B1: 46 (protein, listed as Rhodococcus opacus)
chain: MARIITLEEHYLDPAIAAASAPLARELSPDFAAAYDPASGLSYTPSAQVLQDLGQRRIADMDTHGISMQVLSCLTTQQVPADVAPDLVRAANDTAAAAVRAHPDRFAAFAALPTTAPDAAATELARCIDDLGFVGTMINGRTDGEFLDAPRFDPILATAAARNVPIYLHPAVPPRATSDSNYAGLAPLVTARLQTSAWGWHQETAVHFLHLVLSGVLDRYPNLQFILGHWGEMIPFYLDRLDEALPQAVTNLDRTISDYVRENVYITPSGMFNQAQLQYCVETLGVDRILYSVDYPFIGNDGAVSFLDEANLPDEAKHQIAHQNTEKLLGL
B2: 47 (protein, listed as Serratia odorifera)
chain: MAKIICLEEHTLDKALVMASMPAALAQAPFLSDWGKTITDGNLPDRSRPQIEKNDLINVKGADIGRGRLDDMDEAGITMQVLSVGGFPHLISAAEGVDLNRAANDRLANAVNAHPDRFAAFATLPWAQPDAAEKELERAVKELGFKGALLNGRPSIHFLDHPDYDGLLARFNALGVPLYLHPGLPVRSVQQAYYSGFSDEVTARLSMFGWGWHHEAGIHLLRLILSGAFDKYPNLQVISGHWGEMLPFWLQRLDDSLPQAATGLRRTITQTFREQVYVTPSGMLTLPHFQFIYALLGAERILFSVDYPYQTLDGVKAFIQSLPVPEEAKEAIAFRNAERLFGLTS
B3: 48 (protein, listed as Amycolatopsis mediterranei)
chain: MASMKLYGLEEHFVTADVIEAWRRRDPGLAEPMMKWAVASDITPALLDVDGGRIAAMDDAGIDTTVLSLTTPGLQNLDAAEAVALQAPTNDLIAAAVRRHPGRFQGFATLATSAPAAAADELRRAVTELGLNGALVNANSRGRALDAPGFWDIYEAAEDLRAPVYLHPGVPVPAVTEAYYRGFGEPVNSMLATGAFGWHYDAGLTILRMIVAGVFDRFPGLQVILGHWGEVVLFYLDRVAAMDKLTALRRPIAEYFRSNIFITPGGISSHKYLRWSLETVGVERIMYASDYPFNTERAGSARRFLDTAPVDEAGRERIAYRNWEELIAGIRR
B4: 49 (protein, listed as Streptomyces sp.)
chain: MAKIIALEEHFSDPAVAKAGAARARALSPGFAASYSPASGLPYSPSPEVLENLAEKRLADMDAGGITMQVLSGLGAQTVPADVAPALVAGSNDKAAAAVRAHPDRFAAFAALPTATPEAAVAELDRSVNELGFVGTLIMGRTEGEFLDAPRFEPILARAAALKVPVFLHPGVPPREITDSNYAAGLPTGIGTRLQTAAWGWHQETAVHFLHLVHSGVLDRYPDLQFILGHWGEMIPFYLDRVDEALPQRATGLDRSFHEYFRENVYLAPSGMWSQAQLRFCLETVPLERIVFAVDYPFIGNEGAVPFLEKAELPQADKRKIAHENAERLLGL
B5: 50 (protein, listed as Streptomyces sp.)
chain: MARIVTLEEHWTDPAVTAAGMPNLLDHVPGYAAAFDPDTGMPYPRHPELLEDLGAARIADMDRHGITTQVLSLVNTFLPADVAPRLTAAANDAMAAAVEAFPGRFAAFATLPTAVPGAAADELRRCVGELGFVGTMIMGRTDGEFLDQPRFDPILRAASDLSVPVYLHPAPPPVAVSEASYAGGLSPAVSAAFRLAAWGWHQETAVHLLHLVLAGVLDRYPGLQFVLGHWGEFIPFYLDRLDESMPRRMTGLDRTFREYFRDNVFITPSGMFSQAQLRYCADTVGTDRIIHSVDFPMLGNEGAVSFLTDSHLSREDQEKIAHGNADALLGLG
B6: 51 (protein, listed as Mycobacterium gilvum)
chain: MARVIAIEEHYAHPGLQPAEALANLRKHPQLARIQDKLEDLGAGRLADMDAAGIDMQVLSHTVPGAEALPAAQAVDVVRQTNDDLAEVIAAHPDRFAGFAALPMRDPQAAATELQRAVGTLGFCGAMINGLIEGRFLDHPDFTPLLSTAADLGVPLYLHPSFPPPQVAQIYFGGLPPVLADLLATAGWGWHAETALHVLRLISTGVFDRLPELRVIVGHMGEMIPFALARIDTVLSPMTELRQPVAQYFQTNVWFTTSGYTTFPPLQCALSTVGIDRLIFSVDYPYTDNASARALLDTAPISPVDREKLAHATVEALLRV
B7: 52 (protein, listed as Streptomyces sp.)
chain: MAKIIALEEHFSDPAVAKAGAARAQALSPGFAASYSPASGLPYSPSPEVLENLAEKRLADMDAGGITMQVLSGLSAQTVPADVAPALVAGSNDKAAAAVRAHPDRFAAFAALPTAAPEAAVAELDRSVNELGFVGTLIMGRTEGEFLDAPRFEPILARAAALKVPVFLHPGVPPREITDSNYAAGLPTGIGTRLQTAAWGWHQETAVHFLHLVHSGVLDRYPDLQFILGHWGETIPFYLDRVDEALPQRATGLDRSFHEYFRENVYLAPSGMWSQAQLRFCLETFPLERIVFAVDYPFIGNEGAVPFLEKAELPEADKRKIAHENAERLLGL
B8: 53 (protein, listed as Granulicella tundricola)
chain: MARTITLEEHFVTDSFLRATGAYDKPAPPWLAQLQPKLLDLGDGRIAAMDEAGIDLQVLSLAALGFDALDAATATPLVHDINDELAAAVRANPTRLAAFASLALKDPQSAARELERAIQKLGFRGVLLDGTTDGLFLDDPRFTPVFEAAVALNVPIYLHPAPPPESVFDTYFTGLPEGVGQMLSIAGWGWHAETALHTLRLITNGVFDRYPTLQLIIGHMGEMLPMALARTSKALSHAARLRQPVAAYFQSNIHLTTSGYFTQPPLRCALDVVGIDRLMFSIDYPFSANTLGRDYLTELEQTLTPEDLAKLIHRNAESLLNLS
B9: 54 (protein, listed as Streptomyces sp.)
chain: MAKIIALEEHFSDPAVAKAGAARAQALSPGFAASYSPASGLPYSPSPEVLENLAEKRLADMDAGGITMQVLSGLGAQTVPADVAPALVAGSNDKAAAAVRAHPDRFAAFAALPTAAPEAAVAELDRSINELGFVGTLIMGRTEGEFLDAPRFEPILARAAALKVPVFLHPGVPPREITDSNYAAGLPTGIGTRLQTAAWGWHQETAVHFLHLVHSGVLDRYPGLQFILGHWGEMIPFYLDRVDEALPQRATGLDRSFHEYFRENVYLAPSGMWSQAQLRFCLETVPLERIVFAVDYPFIGNEGAVPFLEKAELPEADKRKIAHENAERLLGL
B10: 2 (protein, listed as Serratia sp.)
chain: MAKIICLEEHTLDKALVMASMPAALEQAPFLSDWGKTVTDGNLPDRSRPQIEKNDLINIKGADIGRGRLDDMDVAGITMQVLSVGGFPHLISAAEGVDLNRAANDRLADAVNAHPDRFAAFATLPWAQPDSAEKELERAVKELGFKGALLNGRPSTHFLDHPDYDGLLARFNALGVPLYLHPGLPVRSVQQAYYGGFSDEVTARLSMFGWGWHHEAGIHLLRLILSGAFDKYPNLQVISGHWGEMLPFWLQRLDDSLPQAATGLRRTIAQTFKEQVYVTPSGMLTLPHFQFIYALLGAERIIFSVDYPYQTLDGVKAFIQSLPVPEEAKEAIAFRNAERLLGLTS

Experiment: 14C assay: 14CO2 capture from [14C]-carboxyl-labeled dicamba with IPTG-induced recombinant E. coli cells
Settings: for Dicamba Decarboxylase Activity: IPTG-induced recombinant E. coli cells, 14CO2 from [14C]-carboxyl-labeled dicamba; for decarboxylation activity of dicamba: among the 108 sequences tested, recombinant E. coli cell assay; for Enzymatic Detection level: dicamba decarboxylation activity

Molecule | Dicamba Decarboxylase Activity | decarboxylation activity of dicamba | Enzymatic Detection level
B1 | High | showed decarboxylation activity of dicamba | High
B2 | High | showed decarboxylation activity of dicamba | High
B3 | High | showed decarboxylation activity of dicamba | High
B4 | High | showed decarboxylation activity of dicamba | High
B5 | High | showed decarboxylation activity of dicamba | High
B6 | High | showed decarboxylation activity of dicamba | High
B7 | High | showed decarboxylation activity of dicamba | High
B8 | High | showed decarboxylation activity of dicamba | High
B9 | High | showed decarboxylation activity of dicamba | High
B10 | High | showed decarboxylation activity of dicamba | High

Source: patent US20140289906A1, “Compositions Having Dicamba Decarboxylase Activity and Methods of Use” (priority 2013, published 2014)
